Results reported in US20240366761A1 (LEGEND BIOTECH IRELAND, published 2024).

B1: TGB23-5 fusion protein (TGFβ receptor and IL-23 receptor fusion protein) (receptor)
chain 1: TIPPHVQKSVNNDMIVTDNNGAVKFPQLCKFCDVRFSTCDNQKSCMSNCSITSICEKPQEVCVAVWRKNDENITLETVCHDPKLPYHDFILEDAASPKCIMKEKKKPGETFFMCSCSSDECNDNIIFSEEYNTSNPDLLLVIFQVPQVTSKAFQHDTWNSGLTVASISTGHLTSDNRGDIGLLLGMIVFAVMLSILSLIGIFNRSFRTGIKRRILLLIPKWLYEDIPNMKNSNVVKMLQENSELMNNNSSEQVLYVDPMITEIKEIFIPEHKPTDYKKENTGPLETRDYPQNSLFDNTTVVYIPDLNTGYKPQISNFLPEGSHLSNNNEITSLTLKPPVDSLDSGNNPRLQKHPNFAFSVSSVNSLSNTIFLGELSLILNQGECSSPDIQNSVEEETTMLLENDSPSETIPEQTLLPDEFVSCLGIVNEELPSINTYFPQNILESHFNRISLLEK
chain 2: LQCFCHLCTKDNFTCVTDGLCFVSVTETTDKVIHNSMCIAEIDLIPRDRPFVCAPSSKTGSVTTTYCCNQDHCNKIELPTTVKSSPGLGPVELVSDWLIFFASLGSFLSILLVGVLGYLGLNRAARHLCPPLPTPCASSAIEFPGGKETWQWINPVDFQEEASLQEALVVEMSWDKGERTEPLEKTELPEGAPELALDTELSLEDGDRCKAKM
B2: TGB23-6 fusion protein (TGFβ receptor and IL-23 receptor fusion protein) (receptor)
chain 1: LQCFCHLCTKDNFTCVTDGLCFVSVTETTDKVIHNSMCIAEIDLIPRDRPFVCAPSSKTGSVTTTYCCNQDHCNKIELPTTVKSSPGLGPVELVSDWLIFFASLGSFLSILLVGVLGYLGLNRAARHLCPPLPTPCASSAIEFPGGKETWQWINPVDFQEEASLQEALVVEMSWDKGERTEPLEKTELPEGAPELALDTELSLEDGDRCKAKM
chain 2: TIPPHVQKSVNNDMIVTDNNGAVKFPQLCKFCDVRFSTCDNQKSCMSNCSITSICEKPQEVCVAVWRKNDENITLETVCHDPKLPYHDFILEDAASPKCIMKEKKKPGETFFMCSCSSDECNDNIIFSEEYNTSNPDLLLVIFQVPQVTSKAFQHDTWNSGLTVASISTGHLTSDNRGDIGLLLGMIVFAVMLSILSLIGIFNRSFRTGIKRRILLLIPKWLYEDIPNMKNSNVVKMLQENSELMNNNSSEQVLYVDPMITEIKEIFIPEHKPTDYKKENTGPLETRDYPQNSLFDNTTVVYIPDLNTGYKPQISNFLPEGSHLSNNNEITSLTLKPPVDSLDSGNNPRLQKHPNFAFSVSSVNSLSNTIFLGELSLILNQGECSSPDIQNSVEEETTMLLENDSPSETIPEQTLLPDEFVSCLGIVNEELPSINTYFPQNILESHFNRISLLEK
B3: TGB23-2 fusion protein (TGFβ receptor and IL-23 receptor fusion protein) (receptor)
chain 1: TIPPHVQKSVNNDMIVTDNNGAVKFPQLCKFCDVRFSTCDNQKSCMSNCSITSICEKPQEVCVAVWRKNDENITLETVCHDPKLPYHDFILEDAASPKCIMKEKKKPGETFFMCSCSSDECNDNIIFSEEYNTSNPDLLLVIFQVTGISLLPPLGVAISVIIIFYCYRVNRQNRSFRTGIKRRILLLIPKWLYEDIPNMKNSNVVKMLQENSELMNNNSSEQVLYVDPMITEIKEIFIPEHKPTDYKKENTGPLETRDYPQNSLFDNTTVVYIPDLNTGYKPQISNFLPEGSHLSNNNEITSLTLKPPVDSLDSGNNPRLQKHPNFAFSVSSVNSLSNTIFLGELSLILNQGECSSPDIQNSVEEETTMLLENDSPSETIPEQTLLPDEFVSCLGIVNEELPSINTYFPQNILESHFNRISLLEK
chain 2: LQCFCHLCTKDNFTCVTDGLCFVSVTETTDKVIHNSMCIAEIDLIPRDRPFVCAPSSKTGSVTTTYCCNQDHCNKIELPTTVKSSPGLGPVELAAVIAGPVCFVCISLMLMVYICHNRTVNRAARHLCPPLPTPCASSAIEFPGGKETWQWINPVDFQEEASLQEALVVEMSWDKGERTEPLEKTELPEGAPELALDTELSLEDGDRCKAKM
B4: TGB23-3 fusion protein (TGFβ receptor and IL-23 receptor fusion protein) (receptor)
chain 1: LQCFCHLCTKDNFTCVTDGLCFVSVTETTDKVIHNSMCIAEIDLIPRDRPFVCAPSSKTGSVTTTYCCNQDHCNKIELPTTVKSSPGLGPVELAAVIAGPVCFVCISLMLMVYICHNRTVNRAARHLCPPLPTPCASSAIEFPGGKETWQWINPVDFQEEASLQEALVVEMSWDKGERTEPLEKTELPEGAPELALDTELSLEDGDRCKAKM
chain 2: TIPPHVQKSVNNDMIVTDNNGAVKFPQLCKFCDVRFSTCDNQKSCMSNCSITSICEKPQEVCVAVWRKNDENITLETVCHDPKLPYHDFILEDAASPKCIMKEKKKPGETFFMCSCSSDECNDNIIFSEEYNTSNPDLLLVIFQVTGISLLPPLGVAISVIIIFYCYRVNRQNRSFRTGIKRRILLLIPKWLYEDIPNMKNSNVVKMLQENSELMNNNSSEQVLYVDPMITEIKEIFIPEHKPTDYKKENTGPLETRDYPQNSLFDNTTVVYIPDLNTGYKPQISNFLPEGSHLSNNNEITSLTLKPPVDSLDSGNNPRLQKHPNFAFSVSSVNSLSNTIFLGELSLILNQGECSSPDIQNSVEEETTMLLENDSPSETIPEQTLLPDEFVSCLGIVNEELPSINTYFPQNILESHFNRISLLEK
B5: TGB23-4 fusion protein (TGFβ receptor and IL-23 receptor fusion protein) (receptor)
chain 1: LQCFCHLCTKDNFTCVTDGLCFVSVTETTDKVIHNSMCIAEIDLIPRDRPFVCAPSSKTGSVTTTYCCNQDHCNKIELPTTVKSSPGLGPVELVPQVTSKAFQHDTWNSGLTVASISTGHLTSDNRGDIGLLLGMIVFAVMLSILSLIGIFNRSFRTGIKRRILLLIPKWLYEDIPNMKNSNVVKMLQENSELMNNNSSEQVLYVDPMITEIKEIFIPEHKPTDYKKENTGPLETRDYPQNSLFDNTTVVYIPDLNTGYKPQISNFLPEGSHLSNNNEITSLTLKPPVDSLDSGNNPRLQKHPNFAFSVSSVNSLSNTIFLGELSLILNQGECSSPDIQNSVEEETTMLLENDSPSETIPEQTLLPDEFVSCLGIVNEELPSINTYFPQNILESHFNRISLLEK
chain 2: TIPPHVQKSVNNDMIVTDNNGAVKFPQLCKFCDVRFSTCDNQKSCMSNCSITSICEKPQEVCVAVWRKNDENITLETVCHDPKLPYHDFILEDAASPKCIMKEKKKPGETFFMCSCSSDECNDNIIFSEEYNTSNPDLLLVIFQVSDWLIFFASLGSFLSILLVGVLGYLGLNRAARHLCPPLPTPCASSAIEFPGGKETWQWINPVDFQEEASLQEALVVEMSWDKGERTEPLEKTELPEGAPELALDTELSLEDGDRCKAKM

molecular target: recombinant human TGFβ1 (human, UniProt P01137 279-390); assay: cell-based or functional assay
Sequence (P01137 279-390 limits assumed): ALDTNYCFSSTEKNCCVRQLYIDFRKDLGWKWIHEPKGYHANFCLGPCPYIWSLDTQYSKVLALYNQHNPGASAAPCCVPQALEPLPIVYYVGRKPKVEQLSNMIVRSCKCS

T cell number from day 0 to day 5 after transduction, culture with 20 ng/mL TGFβ1, > 4 fold:
B1
B2
B3
B4
B5
